Measurements reported in patent US20240101692A1 (CEMM FORSCHUNGSZENTRUM F R MOLEKULARE MEDIZIN, published 2024).
Positions count from the first letter of the chain named. Each block holds one binder with its values, some of them ahead of it.

Columns and labels:
[1] = molecular target: T1, Flag-mouse APRIL (mouse, UniProt Q9D777 96-241, limits assumed); test: Western blot of 50 ng Flag-mAPRIL after SDS-PAGE
T1 construct: Denatured in the assay (SDS-PAGE and Western blot)
T1 sequence (looked up): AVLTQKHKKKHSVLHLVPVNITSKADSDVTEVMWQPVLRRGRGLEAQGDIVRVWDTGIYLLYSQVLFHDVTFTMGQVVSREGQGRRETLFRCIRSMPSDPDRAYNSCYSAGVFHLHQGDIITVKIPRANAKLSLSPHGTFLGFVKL
Procedure: 50 ng of Flag-mouse APRIL “m” or Flag-human APRIL “h” were analyzed by SDS-PAGE on a 12% acrylamide gel, followed by Western blotting with the indicated anti-APRIL antibodies at 1 μg/ml, followed by HRP-coupled anti-mouse secondary reagent, or with a biotinylated anti-Flag antibody (M2-biot) followed by HRP-coupled streptavidin. The micration of molecular weight markers (in kDa) are indicated on the left-hand side.

[2] = molecular target: T2, Fc-hAPRIL WT (ps1307) (human, UniProt O75888 115-250); test: sandwich ELISA on supernatant of transfected cells, capture Aprily5, detection Aprily 1-biot
T2 construct: APRIL residues are counted from Met18; also called Fc-APRIL-ps1307
T2 sequence: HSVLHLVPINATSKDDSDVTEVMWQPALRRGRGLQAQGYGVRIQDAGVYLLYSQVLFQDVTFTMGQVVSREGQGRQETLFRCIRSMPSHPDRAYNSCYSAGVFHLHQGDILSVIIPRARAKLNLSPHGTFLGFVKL

[3] = molecular target: T3, Fc-hAPRIL C-terminal truncation ps4185 (aa 98-232) (human, UniProt O75888 115-249); test: as above
T3 construct: also called Fc-APRIL-ps4185
T3 sequence: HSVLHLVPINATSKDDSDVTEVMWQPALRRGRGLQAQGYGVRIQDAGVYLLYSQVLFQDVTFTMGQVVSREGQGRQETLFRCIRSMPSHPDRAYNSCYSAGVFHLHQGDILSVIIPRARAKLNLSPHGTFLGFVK

[4] = molecular target: T4, Fc-hAPRIL C-terminal truncation ps4186 (aa 98-231) (human, UniProt O75888 115-248); test: as above
T4 construct: also called Fc-APRIL-ps4186
T4 sequence: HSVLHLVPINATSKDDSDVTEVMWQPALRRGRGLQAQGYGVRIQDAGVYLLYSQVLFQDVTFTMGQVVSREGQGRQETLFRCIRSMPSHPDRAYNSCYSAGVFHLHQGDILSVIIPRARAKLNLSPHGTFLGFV

[5] = molecular target: T5, Fc-hAPRIL C-terminal truncation ps4187 (aa 98-230) (human, UniProt O75888 115-247); test: as above
T5 construct: also called Fc-APRIL-ps4187
T5 sequence: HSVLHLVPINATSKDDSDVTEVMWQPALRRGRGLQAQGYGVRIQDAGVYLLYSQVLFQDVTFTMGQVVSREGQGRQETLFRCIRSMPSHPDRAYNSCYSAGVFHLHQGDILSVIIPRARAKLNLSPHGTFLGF

[6] = molecular target: T6, Fc-hAPRIL C-terminal truncation ps4188 (aa 98-229) (human, UniProt O75888 115-246); test: as above
T6 construct: also called Fc-APRIL-ps4188
T6 sequence: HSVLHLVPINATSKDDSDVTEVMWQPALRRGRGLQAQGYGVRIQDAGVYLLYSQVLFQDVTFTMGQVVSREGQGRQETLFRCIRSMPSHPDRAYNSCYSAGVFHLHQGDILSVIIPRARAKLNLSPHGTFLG

[7] = molecular target: T2, Fc-hAPRIL WT (ps1307); test: sandwich ELISA on supernatant of transfected cells, capture Aprily5, detection Aprily2-biot
[8] = molecular target: T3, Fc-hAPRIL C-terminal truncation ps4185 …; test: as above
[9] = molecular target: T4, Fc-hAPRIL C-terminal truncation ps4186 …; test: as above
[10] = molecular target: T5, Fc-hAPRIL C-terminal truncation ps4187 …; test: as above
[11] = molecular target: T6, Fc-hAPRIL C-terminal truncation ps4188 …; test: as above
[12] = molecular target: heparan sulfate proteoglycan 2 (human, UniProt P98160 22-4391); test: confocal microscopy of human coronary artery specimens stained with Aprily 2 and anti-HSPG2

binding result [1]: no binding (tested: 1 µg/ml) | binding result [2]: binds | binding result [3]: binds | binding result [4]: binds | binding result [5]: binds | binding result [6]: binds
B1: Aprily 1 (antibody, V domains shown)
VH: QIQLVQSGPELKKPGETVRISCKASGYNFKTSGMSWVKQAPGKGLKWMGWIDTYAGVPTYTDDFKGRFVFSLETSATTAFLQINNLKNEDTGTYFCAREPGTDNWGQGTSLTVSS
VL: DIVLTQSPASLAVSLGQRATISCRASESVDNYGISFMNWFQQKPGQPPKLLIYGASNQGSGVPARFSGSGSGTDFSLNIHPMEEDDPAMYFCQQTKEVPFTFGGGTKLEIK
notes: Anti-human APRIL monoclonal antibody; Used biotinylated as detection antibody in some ELISAs; also called Aprily 1-biot

binding result [1]: no binding (tested: 1 µg/ml) | binding result [7]: binds | binding result [8]: binds | binding result [9]: binds | binding result [10]: binds | binding result [11]: binds
B2: Aprily 2 (antibody, V domains shown)
VH: B1 VH with N28T, T53A, V57I, V69A, E73D
VL: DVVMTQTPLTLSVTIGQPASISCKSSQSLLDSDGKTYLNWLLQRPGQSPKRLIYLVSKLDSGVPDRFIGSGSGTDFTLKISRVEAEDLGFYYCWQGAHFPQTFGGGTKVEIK
notes: Anti-human APRIL monoclonal antibody; Used coupled to beads for depletion and biotinylated for detection; also called Aprily 2-biot

binding result [12]: binds
B3: APRIL in human arteries (ligand)
chain: AVLTQKQKKQHSVLHLVPINATSKDDSDVTEVMWQPALRRGRGLQAQGYGVRIQDAGVYLLYSQVLFQDVTFTMGQVVSREGQGRQETLFRCIRSMPSHPDRAYNSCYSAGVFHLHQGDILSVIIPRARAKLNLSPHGTFLGFVKL
notes: Endogenous protein in tissue sections
